According to the RNAGym collection of RNA variant scans (doi:10.7554/elife.80360):

B1: HDV Ribozyme (parent)
chain: GGCCGGCAUGGUCCCAGCCUCCUCGCUGGCGCCGGCUGGGCAACAUUCCGAGGGGACCGUCCCCUCGGUAAUGGCGAAUGGGACCCA

Variants of: B1
Test: self-cleavage, relative activity (ratio to wild type); higher = more cleavage; co-transcriptional

Row | Variant | self-cleavage
1 | GGCCGGCAUGGUCCCAGCCUCCUCGCUGGCGCCGGCUGGGCAACACUCCGAGGGGACCGUCCCCUCGGUAAUGGUGAAUGGGACCCA | 0.0755
2 | GGCCGGCAUGGUCCCAGCCUCCUCGCUGGCGCCGGCUGGGCAACACUCCGAGGGGACCGUCCCCUCGGUAAUGGCGAAUGGGAUCCA | 0.485
3 | GGCCGGCAUGGUCCCAGCCUCCUCGCUGGCGCCGGCUGGGCAACACUCCGAGGGGACCGUCCCCUCGGUAAUGGCGAAUGGGACCGA | 0.852
4 | GGCCGGCAUGGUCCCAGCCUCCUCGCUGGCGCCGGCUGGGCAACACUCCAAGGGGACCGUCCCCUCGGUAAUGGCGAAUGGGACCCA | 0.698
5 | GGCCGGCAUGGUCCCAGCCUCCUCGCUGGCGCCGGCUGGGCAACACUCCCAGGGGACCGUCCCCUCGGUAAUGGCGAAUGGGACCCA | 0.932
6 | GGCCGGCAUGGUCCCAGCCUCCUCGCUGGCGCCGGCUGGGCAACACUCCGACGGGACCGUCCCCUCGGUAAUGGCGAAUGGGACCCA | 0.72
7 | GGCCGGCAUGGUCCCAGCCUCCUCGCUGGCGCCGGCUGGGCAACACUCCGAGGGGACCCUCCCCUCGGUAAUGGCGAAUGGGACCCA | 0.965
8 | GGCCGGCAUGGUCCCAGCCUCCUCGCUGGCGCCGGCUGGGCAACACUCCGAGGGGACCGUCCCCUCGUUAAUGGCGAAUGGGACCCA | 0.719
9 | GGCCGGCAUGGUCCCAGCCUCCUCGCUGGCGCCGGCUGGGCAACACUCCGAGGGGACCGUCCCCUCGGUAAUGGCCAAUGGGACCCA | 0.415
10 | GGCCGGCAUGGUCCCAGCCUCCUCGCUGGCGCCGGCUGGGCAACACUCCGAGGGGACCGUCCCCUCGGUAAUGGCGAAUAGGACCCA | 0.185
11 | GGCCGGCAUGGUCCCAGCCUCCUCGCUGGCGCCGGCUGGGCAACACUCCGAGGGGACCGUCCCCUCGGUAAUGGCGAAUGAGACCCA | 0.208
12 | GGCCGGCAUGGUCCCAGCCUCCUCGCUGGCGCCGGCUGGGCAACACUCCGAGGGGACCGUCCCCUCGGUAAUGGCGAAUGGUACCCA | 0.138
13 | GGCCGGCAUGGUCCCAGCCUCCUCGCUGGCGCCGGCUGGGCAACACGCCGAGGGGACCGUCCCCUCGGUAAUGGCGAAUGGGACCCA | 0.703
14 | GGCCGGCAUGGUCCCAGCCUCCUCGCUGGCGCCGGCUGGGCAACACUCCGAGGGGACCGUCCCCCCGGUAAUGGCGAAUGGGACCCA | 1.2
15 | GGCCGGCAUGGUCCCAGCCUCCUCGCUGGCGCCGGCUGGGCAACAGUCCGAGGGGACCGUCCCCUCGGUAUUGGCGAAUGGGACCCA | 0.731
16 | GGCCGGCAUGGUCCCAGCCUCCUCGCUGGCGCCGGCUGGGCAACAGUCCGAGGGGACCGUCCCCUCGGUAAUGGCGCAUGGGACCCA | 0.0875
17 | GGCCGGCAUGGUCCCAGCCUCCUCGCUGGCGCCGGCUGGGCAACAGUCCGAGGGGACCGUCCCCUCGGUAAUGGCGAUUGGGACCCA | 0.0573
18 | GGCCGGCAUGGUCCCAGCCUCCUCGCUGGCGCCGGCUGGGCAACAGUUCGAGGGGACCGUCCCCUCGGUAAUGGCGAAUGGGACCCA | 0.751
19 | GGCCGGCAUGGUCCCAGCCUCCUCGCUGGCGCCGGCUGGGCAACAGUCAGAGGGGACCGUCCCCUCGGUAAUGGCGAAUGGGACCCA | 0.391
20 | GGCCGGCAUGGUCCCAGCCUCCUCGCUGGCGCCGGCUGGGCAACAGUCCGAGGGGACCGUACCCUCGGUAAUGGCGAAUGGGACCCA | 0.617
21 | GGCCGGCAUGGUCCCAGCCUCCUCGCUGGCGCCGGCUGGGCAACAGUCCGAGGGGACCGUCACCUCGGUAAUGGCGAAUGGGACCCA | 0.575
22 | GGCCGGCAUGGUCCCAGCCUCCUCGCUGGCGCCGGCUGGGCAACAGUCCGAGGGGACCGUCCUCUCGGUAAUGGCGAAUGGGACCCA | 0.813

Row | Variant | self-cleavage
23 | GGCCGGCAUGGUCCCAGCCUCCUCGCUGGCGCCGGCUGGGCAACAGUCCGAGGGGACCGUCCCCUAGGUAAUGGCGAAUGGGACCCA | 0.308
24 | GGCCGGCAUGGUCCCAGCCUCCUCGCUGGCGCCGGCUGGGCAACAGUCCGAGGGGACCGUCCCCUGGGUAAUGGCGAAUGGGACCCA | 0.633
25 | GGCCGGCAUGGUCCCAGCCUCCUCGCUGGCGCCGGCUGGGCAACAGUCCGAGGGGACCGUCCCCUCGGUAAUGGCGAAUGGGAACCA | 0.554
26 | GGCCGGCAUGGUCCCAGCCUCCUCGCUGGCGCCGGCUGGGCAACAGUCCGAGGGGACCGUCCCCUCGGUAAUGGCGAAUGGGACGCA | 0.665
27 | GGCCGGCAUGGUCCCAGCCUCCUCGCUGGCGCCGGCUGGGCAACAGUCCGAGGGGACCGUCCCCUCGGUAAUGGCGAAUGGGACCGA | 1.01
28 | GGCCGGCAUGGUCCCAGCCUCCUCGCUGGCGCCGGCUGGGCAACAGUCCCAGGGGACCGUCCCCUCGGUAAUGGCGAAUGGGACCCA | 0.429
29 | GGCCGGCAUGGUCCCAGCCUCCUCGCUGGCGCCGGCUGGGCAACAGUCCGAUGGGACCGUCCCCUCGGUAAUGGCGAAUGGGACCCA | 0.237
30 | GGCCGGCAUGGUCCCAGCCUCCUCGCUGGCGCCGGCUGGGCAACAGUCCGAGUGGACCGUCCCCUCGGUAAUGGCGAAUGGGACCCA | 0.262
31 | GGCCGGCAUGGUCCCAGCCUCCUCGCUGGCGCCGGCUGGGCAACAGUCCGAGGGGACCAUCCCCUCGGUAAUGGCGAAUGGGACCCA | 1.09
32 | GGCCGGCAUGGUCCCAGCCUCCUCGCUGGCGCCGGCUGGGCAACAGUCCGAGGGGACCGUCCCCUCUGUAAUGGCGAAUGGGACCCA | 0.302
33 | GGCCGGCAUGGUCCCAGCCUCCUCGCUGGCGCCGGCUGGGCAACAGUCCGAGGGGACCGUCCCCUCGGUAAUAGCGAAUGGGACCCA | 0.831
34 | GGCCGGCAUGGUCCCAGCCUCCUCGCUGGCGCCGGCUGGGCAACAGUCCGAGGGGACCGUCCCCUCGGUAAUGCCGAAUGGGACCCA | 0.201
35 | GGCCGGCAUGGUCCCAGCCUCCUCGCUGGCGCCGGCUGGGCAACAGUCCGAGGGGACCGUCCCCUCGGUAAUGGCUAAUGGGACCCA | 0.73
36 | GGCCGGCAUGGUCCCAGCCUCCUCGCUGGCGCCGGCUGGGCAACAGUCCGAGGGGACCGUCCCCUCGGUAAUGGCGAAUGUGACCCA | 0.249
37 | GGCCGGCAUGGUCCCAGCCUCCUCGCUGGCGCCGGCUGGGCAACAGGCCGAGGGGACCGUCCCCUCGGUAAUGGCGAAUGGGACCCA | 0.262
38 | GGCCGGCAUGGUCCCAGCCUCCUCGCUGGCGCCGGCUGGGCAACAGUCCGAGGGGACCGCCCCCUCGGUAAUGGCGAAUGGGACCCA | 0.665
39 | GGCCGGCAUGGUCCCAGCCUCCUCGCUGGCGCCGGCUGGGCAACAGUCCGAGGGGACCGUCCCCUCGGUAAAGGCGAAUGGGACCCA | 0.266
40 | GGCCGGCAUGGUCCCAGCCUCCUCGCUGGCGCCGGCUGGGCAACAUACCGAGGGGACCGUCCCCUCGGUACUGGCGAAUGGGACCCA | 0.85
41 | GGCCGGCAUGGUCCCAGCCUCCUCGCUGGCGCCGGCUGGGCAACAUACCGAGGGGACCGUCCCCUCGGUAUUGGCGAAUGGGACCCA | 0.657
42 | GGCCGGCAUGGUCCCAGCCUCCUCGCUGGCGCCGGCUGGGCAACAUACCGAGGGGACCGUCCCCUCGGUAAUGGCGCAUGGGACCCA | 0
43 | GGCCGGCAUGGUCCCAGCCUCCUCGCUGGCGCCGGCUGGGCAACAUACCGAGGGGACCGUCCCCUCGGUAAUGGCGUAUGGGACCCA | 0.516
44 | GGCCGGCAUGGUCCCAGCCUCCUCGCUGGCGCCGGCUGGGCAACAUACCGAGGGGACCGUCCCCUCGGUAAUGGCGAGUGGGACCCA | 0.831

Row | Variant | self-cleavage
45 | GGCCGGCAUGGUCCCAGCCUCCUCGCUGGCGCCGGCUGGGCAACAUACCGAGGGGACCGUCCCCUCGGUAAUGGCGAUUGGGACCCA | 0.295
46 | GGCCGGCAUGGUCCCAGCCUCCUCGCUGGCGCCGGCUGGGCAACAUACCGAGGGGACCGUCCCCUCGGUAAUGGCGAAUGGGGCCCA | 0.734
47 | GGCCGGCAUGGUCCCAGCCUCCUCGCUGGCGCCGGCUGGGCAACAUAUCGAGGGGACCGUCCCCUCGGUAAUGGCGAAUGGGACCCA | 0.923
48 | GGCCGGCAUGGUCCCAGCCUCCUCGCUGGCGCCGGCUGGGCAACAUACAGAGGGGACCGUCCCCUCGGUAAUGGCGAAUGGGACCCA | 0.886
49 | GGCCGGCAUGGUCCCAGCCUCCUCGCUGGCGCCGGCUGGGCAACAUACCGAGGGGAGCGUCCCCUCGGUAAUGGCGAAUGGGACCCA | 0.898
50 | GGCCGGCAUGGUCCCAGCCUCCUCGCUGGCGCCGGCUGGGCAACAUACCGAGGGGACCGUCUCCUCGGUAAUGGCGAAUGGGACCCA | 1.03
51 | GGCCGGCAUGGUCCCAGCCUCCUCGCUGGCGCCGGCUGGGCAACAUACCGAGGGGACCGUCCUCUCGGUAAUGGCGAAUGGGACCCA | 1
52 | GGCCGGCAUGGUCCCAGCCUCCUCGCUGGCGCCGGCUGGGCAACAUACCGAGGGGACCGUCCCUUCGGUAAUGGCGAAUGGGACCCA | 1.08
53 | GGCCGGCAUGGUCCCAGCCUCCUCGCUGGCGCCGGCUGGGCAACAUACCGAGGGGACCGUCCCCUUGGUAAUGGCGAAUGGGACCCA | 1.17
54 | GGCCGGCAUGGUCCCAGCCUCCUCGCUGGCGCCGGCUGGGCAACAUACCGAGGGGACCGUCCCCUCGGUAAUGGAGAAUGGGACCCA | 0.138
55 | GGCCGGCAUGGUCCCAGCCUCCUCGCUGGCGCCGGCUGGGCAACAUACCGAGGGGACCGUCCCCUCGGUAAUGGUGAAUGGGACCCA | 0.203
56 | GGCCGGCAUGGUCCCAGCCUCCUCGCUGGCGCCGGCUGGGCAACAUACCGAGGGGACCGUCCCCUCGGUAAUGGCGAAUGGGACACA | 0.962
57 | GGCCGGCAUGGUCCCAGCCUCCUCGCUGGCGCCGGCUGGGCAACAUACCGACGGGACCGUCCCCUCGGUAAUGGCGAAUGGGACCCA | 0.978
58 | GGCCGGCAUGGUCCCAGCCUCCUCGCUGGCGCCGGCUGGGCAACAUACCGAGCGGACCGUCCCCUCGGUAAUGGCGAAUGGGACCCA | 1.19
59 | GGCCGGCAUGGUCCCAGCCUCCUCGCUGGCGCCGGCUGGGCAACAUACCGAGUGGACCGUCCCCUCGGUAAUGGCGAAUGGGACCCA | 0.755
60 | GGCCGGCAUGGUCCCAGCCUCCUCGCUGGCGCCGGCUGGGCAACAUACCGAGGCGACCGUCCCCUCGGUAAUGGCGAAUGGGACCCA | 1.01
61 | GGCCGGCAUGGUCCCAGCCUCCUCGCUGGCGCCGGCUGGGCAACAUACCGAGGGCACCGUCCCCUCGGUAAUGGCGAAUGGGACCCA | 1.15
62 | GGCCGGCAUGGUCCCAGCCUCCUCGCUGGCGCCGGCUGGGCAACAUACCGAGGGGACCUUCCCCUCGGUAAUGGCGAAUGGGACCCA | 0.933
63 | GGCCGGCAUGGUCCCAGCCUCCUCGCUGGCGCCGGCUGGGCAACAUACCGAGGGGACCGUCCCCUCCGUAAUGGCGAAUGGGACCCA | 1.12
64 | GGCCGGCAUGGUCCCAGCCUCCUCGCUGGCGCCGGCUGGGCAACAUACCGAGGGGACCGUCCCCUCGAUAAUGGCGAAUGGGACCCA | 1.09
